Measurements reported in paper PMC8449409 (2021).

Biological target: T1, β-catenin (Mus musculus, UniProt Q02248)
T1 chain: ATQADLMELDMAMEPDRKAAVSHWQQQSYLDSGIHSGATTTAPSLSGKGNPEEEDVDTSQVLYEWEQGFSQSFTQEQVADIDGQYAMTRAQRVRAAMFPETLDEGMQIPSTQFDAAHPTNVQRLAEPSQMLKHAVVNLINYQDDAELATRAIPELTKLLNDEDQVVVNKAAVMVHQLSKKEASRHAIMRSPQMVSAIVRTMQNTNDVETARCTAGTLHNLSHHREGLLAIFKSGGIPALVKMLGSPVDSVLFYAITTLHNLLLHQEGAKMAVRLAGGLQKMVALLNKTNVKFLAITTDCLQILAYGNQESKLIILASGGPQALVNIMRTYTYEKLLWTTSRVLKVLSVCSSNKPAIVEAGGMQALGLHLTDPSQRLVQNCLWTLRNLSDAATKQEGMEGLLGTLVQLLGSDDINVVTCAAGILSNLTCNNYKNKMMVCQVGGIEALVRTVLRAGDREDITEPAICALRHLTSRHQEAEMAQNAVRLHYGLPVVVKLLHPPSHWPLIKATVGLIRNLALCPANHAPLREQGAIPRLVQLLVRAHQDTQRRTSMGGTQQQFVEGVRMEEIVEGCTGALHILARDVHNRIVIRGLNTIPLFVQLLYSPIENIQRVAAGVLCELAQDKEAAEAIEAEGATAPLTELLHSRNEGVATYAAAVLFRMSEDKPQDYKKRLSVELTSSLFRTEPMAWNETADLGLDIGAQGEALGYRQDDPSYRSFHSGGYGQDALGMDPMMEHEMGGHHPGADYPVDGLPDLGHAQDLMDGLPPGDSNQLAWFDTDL

## DPTAPPYDSLLVFDYEGSGS [E-cadherin core-binding peptide core-binding region (20 aa)]
  Kd: > 1000 nM
